Measurements taken from US9127075B2, “Analgesic active peptide VGG, preparation and use thereof” (priority 2010, dated 2015).
Like-named read-outs stand apart in the source and are kept apart here.

Assays:
[1] = test system: mouse hot plate analgesic method; test: In vivo assay of analgesic activity, hot plate method of mice; settings: 0.1 mg/kg i.v. via tail, hot plate 55±0.5° C.; for B, average response time after medicine taken: before 21 ± 4.2 s
Protocol: 2. In Vivo Assay of Analgesic Activity—Hot Plate Method of Mice
This example is used to verify the in vivo biological activity for the analgesic activity of analgesic active peptide VGG with […].
The mouse hot plate analgesic method: the female mice with weight from 18 g to 22 g were put a hot plate at temperature of 55±0.5° C. which was maintained by a water bath. The licking times were recorded plate as the pain threshold of mouse after it was put onto the hot plate. The pain threshold between 10-30 seconds was considered to be qualified for experiments. The qualified mice were divided into groups by random. The normal pain reaction time of mouse was determined for two times. The mean of the pain threshold (B) was calculated before medicine was taken. The analgesic active peptide VGG (dosage of 0.1 mg/kg (test sample/mouse weight) was intravenously injected via tail. The normal saline was used as control group. The pain reaction time was recorded as one at 15, 30, 45, 60 […] after the test sample was taken. The mouse was immediately taken out if it had no pain response on the hot plate in 60 seconds. The 60 seconds as a calculation unit, the pain threshold increasing percentage was calculated by the following formula: A=(B−C)/C×100% • A—Pain threshold increasing percentage • B—Average response time after medicine taken • C—Average response time before medicine taken

[2] = test system: mouse twisting model induced by acetic acid; format: in vivo
Protocol: 1. In Vivo Analgesic Activity in Mouse Twisting Model Induced by Acetic Acid.
In mouse twisting model: The glacial acetic acid as the chemical irritant is injected into the mouse stomach, which causes a deep and large area and lasting pain stimulus for animal which has a “twist body” reaction, such as abdominal cove, torso and legs spread out, hip high up.
Equal numbers of male and female mice, whose weight were about […], were divided into groups by random. Each group consisted of eight mice. 0.2 ml/20 g of 0.6% (v/v) of acetic acid, which caused visceral pain, was intraperitoneally injected after the test sample was injected into the stomach of mouse for 20 minutes. The writhing times of the mouse were recorded for 10 min after the acetic acid was injected for 5 min. […] The inhibition of writhing response inhibition for each test group was calculated by the following formula: […]

B1: analgesic active peptide VGG (protein, listed as Mesobuthus martensi)
chain: VKDGYIADDRNCPYFCGRNAYCDGECKKNRAESGYCQWASKYGNACWCYKLPDDARIMKPGRCNGG
- A, pain threshold increasing percentage ([1]; 10 min): 128%
- B, average response time after medicine taken ([1]; 10 min): 48 ± 3.2 s
- A, pain threshold increasing percentage ([1]; 15 min): 138%
- B, average response time after medicine taken ([1]; 15 min): 50 ± 5.1 s
- A, pain threshold increasing percentage ([1]; 30 min): 114%
- B, average response time after medicine taken ([1]; 30 min): 45 ± 3.7 s
- A, pain threshold increasing percentage ([1]; 45 min): 100%
- B, average response time after medicine taken ([1]; 45 min): 42 ± 6.9 s
- A, pain threshold increasing percentage ([1]; 60 min): 90%
- B, average response time after medicine taken ([1]; 60 min): 40 ± 3.5 s
- inhibition of the animal writhing ([2]; purest analgesic active peptide VGG, dosage 0.1 mg/kg): ≥ 60%
- inhibition of the animal writhing ([2]; various purity, isolated from scorpion venom or scorpion tails or scorpion body, dosage 0.1 mg/kg-1.0 mg/kg): ≥ 50%
